The target in assay [1] is T1, recombinant soluble WNV NS1 protein (Native Antigen) (West Nile virus, strain of bought …, UniProt Q9Q6P4).
T1 construct: also called recombinant WNV NS1; recombinant, hexameric WNV NS1; source: bought: Native Antigen
The experiment in a line: ELISA. As to conditions: both partners purified.

For assay [2], the target named is T2, full-length WNV NS1 (strain 382-99), wild type, expressed in HEK293T cells (West Nile virus, New York 1999, strain …, UniProt Q9Q6P4).
T2 construct: also called WT NS1; WT WNV NS1; source: HEK293T, transfected (pFM-A1.2), on fixed cells
Put plainly: flow cytometry on cells. Conditions: one partner purified. For orientation: In flow cytometry, cells or beads pass a laser one at a time.

In assay [3] the target is T3, JEV NS1 protein (Native Antigen) (Japanese encephalitis virus, strain not …, UniProt P27395).
T3 construct: source: bought: Native Antigen
The experiment in a line: ELISA. Conditions: both partners purified.

Assay [4] concerns the target T4, DENV2 NS1 protein (Native Antigen) (Dengue virus type 2, strain  …, UniProt P29990).
T4 construct: source: bought: Native Antigen
Put plainly: ELISA. Conditions: both partners purified.

Assay [5] concerns the target T5, TBEV NS1 protein (Native Antigen) (Tick-borne encephalitis virus, strain …, UniProt P14336).
T5 construct: source: bought: Native Antigen
Put plainly: ELISA. Conditions: both partners purified.

The text below walks through data of article PMC8510529 (mBio, 2021).

T3 sequence (P27395 795-1146): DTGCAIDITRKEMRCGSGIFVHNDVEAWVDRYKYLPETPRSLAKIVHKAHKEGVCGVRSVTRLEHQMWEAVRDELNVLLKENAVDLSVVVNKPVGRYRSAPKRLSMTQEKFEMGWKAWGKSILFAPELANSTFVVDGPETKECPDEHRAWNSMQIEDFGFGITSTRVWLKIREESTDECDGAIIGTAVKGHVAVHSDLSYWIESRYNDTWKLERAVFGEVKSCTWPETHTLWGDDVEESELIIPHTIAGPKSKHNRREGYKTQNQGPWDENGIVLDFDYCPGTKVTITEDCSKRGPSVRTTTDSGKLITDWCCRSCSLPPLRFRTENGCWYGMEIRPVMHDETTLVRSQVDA
T2 sequence (Q9Q6P4 792-1143): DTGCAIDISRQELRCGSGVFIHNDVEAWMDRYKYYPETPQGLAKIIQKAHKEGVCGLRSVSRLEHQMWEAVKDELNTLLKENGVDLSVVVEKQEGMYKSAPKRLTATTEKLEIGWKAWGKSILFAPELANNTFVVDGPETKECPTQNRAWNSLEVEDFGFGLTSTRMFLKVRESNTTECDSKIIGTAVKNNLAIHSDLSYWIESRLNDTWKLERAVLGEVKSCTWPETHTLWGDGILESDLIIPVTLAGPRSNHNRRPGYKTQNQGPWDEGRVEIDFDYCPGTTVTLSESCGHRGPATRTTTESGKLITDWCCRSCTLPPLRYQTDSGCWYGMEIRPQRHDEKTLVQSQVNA
T1 sequence (Q9Q6P4 792-1143): as above
T5 sequence (P14336 777-1128): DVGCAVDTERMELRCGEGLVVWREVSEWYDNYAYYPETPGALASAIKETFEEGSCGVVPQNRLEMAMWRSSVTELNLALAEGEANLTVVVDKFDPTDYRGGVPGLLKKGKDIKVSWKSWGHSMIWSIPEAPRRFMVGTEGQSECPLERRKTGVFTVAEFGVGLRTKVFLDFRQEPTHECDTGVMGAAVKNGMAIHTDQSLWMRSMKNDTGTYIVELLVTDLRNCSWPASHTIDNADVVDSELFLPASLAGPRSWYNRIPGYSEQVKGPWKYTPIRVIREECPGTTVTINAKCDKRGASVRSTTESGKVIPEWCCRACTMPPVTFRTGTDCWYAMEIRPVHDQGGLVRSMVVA
T4 sequence (P29990 776-1127): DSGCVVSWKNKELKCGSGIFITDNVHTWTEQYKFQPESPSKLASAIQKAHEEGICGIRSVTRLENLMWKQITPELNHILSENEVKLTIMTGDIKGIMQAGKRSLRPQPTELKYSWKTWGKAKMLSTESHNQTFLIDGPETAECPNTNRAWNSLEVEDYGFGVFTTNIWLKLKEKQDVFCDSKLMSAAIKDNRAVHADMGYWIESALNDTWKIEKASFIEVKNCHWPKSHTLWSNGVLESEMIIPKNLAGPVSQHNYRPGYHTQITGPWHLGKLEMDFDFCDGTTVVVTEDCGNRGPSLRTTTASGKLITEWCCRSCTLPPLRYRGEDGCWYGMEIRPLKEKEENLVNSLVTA

B1: WNV-116 (antibody, V domains shown)
VH: QMQLVESGGGVVQPGRSLRLSCVASGFNFKTYVMNWVRQAPGKGLEWVAVILSDGDNKYYADSVKGRFTISRDNSKNTLFLQMDSLRADDTAVYYCTRVPHCSTSSCYKEYYNYYMDVWGKGTTVSVSS
VL: EIVLTQSPATLSLSPGDRATLSCRASQSLSTSLAWYQQKPGQAPRLVIYDASNRAADIPARFSGSGSGTDFTLTIRSLEPEDFAVYYCQQRSNWPPRYTFGQGTKLEIK
Regarding B1, the binding result in assay [1] and in assay [2] was “binds” throughout.

B2: WNV-120 (antibody, V domains shown)
VH: KVQLEESGGGWVKPGRSLRLSCGASGFRFDDYAMHWVRQVPGKGLEWVSGISWDSDGIGYADSVKGRFTISRDNAKNSLFLQMNSLRAEDTALYYCVKDKGWLIQGRFDSWGQGIRVTVSS
VL: DIVVTQSPDSLAVSLGERVTINCKTSQSVLYTFNNQNYLAWYQQKSGQPPKLLIYWASTRESGVPDRFSGSGSGTDFTLTISRLQAEDVAVYYCQQFYISPPGTFGQGTKVEIK
As for B2, the binding result in assay [1], in assay [3] and in assay [2] was “binds” throughout.

B3: WNV-96 (antibody, V domains shown)
VH: QVQLVQSGAEVKKPGASVKVSCRPSGYIFTNYYIEWVRQAPGQGLEWMGIINPSGGKTTYAQKFQGRVTMTSDTSTSTVYMELSSLRSDDTAVYYCARDGNGSDYWGQGTRVTVSS
VL: DVQMTQSPSSLSASVGDRVTITCRASQNINNYLNWYQQKPGRAPKLLIYATSNLESGVPSRFSGSRSGADFTLTISSLQPEDFASYYCQQSYNAPRTFGHGTKVEIK
notes: also called IgG1-WT variant of WNV-96
Take B3: the binding result in assay [1] and in assay [2] was “binds” in each case.

B4: WNV-95 (antibody, V domains shown)
VH: QVQLQESGPGLVKPSQTLSLTCTVSGGSINSGAFYWSWIRQHPGKGLEWIGFIYYSGSTYYNPSLRSRVTISVDTSKNQFSLKLISVTAADTAVYYCARDRPDDPGPYFDSWGRGTLVTVSS
VL: QSALTQPASVSGSPGQSITISCTGTSNDVGRYNSVSWYQQHPGNAPKLMIYDVSNRPSGVSNRFSGSKSGNTASLTISGLQAEDEADYYCSSYTSSSSVVFGGGTKLTVL
Turning to B4, the binding result in assay [1] and in assay [2] was “binds” each time.

B5: WNV-100 (antibody, V domains shown)
VH: QLQLQESGSGLVKPSQTLSLTCTVSGDSIGSGGFSWTWIRQPPGKGLEWIGNIYHSGGTYYNPSLKSRVTISIDNSTHFSLKLSSVTAADSAVYYCARDRGMVIKRRPWSYGLDVWGQGTTVSVSS
VL: QSVLTQPPSASGTPGQRVTISCSGGSSNIGSNSVSWYQHLPRTAPKLLIYSNNQRSSGVPDRFSGSKSGTSASLAISGLQSDDEADYYCAAWDDSLHVLFGGGTKLTVL
For the molecule B5, the binding result in assay [1], in assay [3], in assay [4], in assay [5] and in assay [2] was “binds” each time.

B6: WNV-103 (antibody, V domains shown)
VH: EVQLVESGGGLLQPGGSLRLSCAASGFSFSRYWMHWVRQAPGKGLIWVSRINTDGSTTIYADSVKGRFTVSRDNAKNTLFLQMSRLRPEDTAVYYCARVIASPGISYGMDVWGHGTTVTVSS
VL: SHELTQPPSVSVSPGQTATITCSGDALPKQYAYWYQQKSGQAPVLVIYKDTKRPSGIPERFSGSSSGTVVTLTISGVQAEDEADYYCQSADISSTYVVFAGGTKLTVL
On to B6, for which the binding result in assay [1] and in assay [2] was “binds” throughout.

B7: WNV-104 (antibody, V domains shown)
VH: QVQLVESGGGVVQPGTSLRLSCAASGFTFRSYGMHWVRQAPGKGLEWVALIWYDGSNKYYADSVKGRFTISRDNSRSTLYLQMNSLRAEDTAVYYCARDLGEYDSLVGPLYTARLGYWGQGTLVTVSS
VL: DIQMTQSPSSLSASVGDRVTMTCQASQDISNYLNWYQQKPGKAPNLLIYDASNLETGVPSRFSGSGSGTDFTFTISSLQPEDIATYYCQQYDNLPITFGQGTRLEIK
In the case of B7, the binding result in assay [1] and in assay [2] was “binds” throughout.

B8: WNV-117 (antibody, V domains shown)
VH: EVQLLESGGGLVQPGGSLRLSCAASGFTFSNYAMSWVRQAPGKGLEWVSSISDRGDYTYYADSVKGRFTISRDKSRNTLYLQIKSLRAEDTAVYYCAKCWGRGSYSGIPD
VL: DIQMTQSPSSLSASVGDRVTISCQASHDITNFLNWYQQKPGKAPKLLIYDASNLEAGVPSRFSGSGSGTDFTFTISSLQPEDIATYYCQQYDNLFITFGQGTRLEIK
With B8, the binding result in assay [1] and in assay [2] was “binds” each time.

B9: WNV-97 (antibody, V domains shown)
VH: QVQLVESGGGLVQPGGSLRVSCAASGFTFSTYEMNWVRQAPGKGLEWVSYISNSGTIIYYADSVKGRFTISRDNAKNSLYLQMNSLRAEDTAIYYCGRVLRDRDVVAGPPARVWDYYYYGMDVWGQGTTVTVSS
VL: DIVMTQSPLSLPVTPGEPASISCRSSQSLLHSSGYNCLDWYLQKPGQSPQLLIYLRSNRASGVPDRFSGSGSGTDFTLKISRVEAEDVGVYYCMQTLQTPWTFGQGTKVEIK
As to B9, the binding result in assay [5] was “binds”.

B10: WNV-98 (antibody, V domains shown)
VH: QVQLVESGGGLVKPGGSLRLSCAASGFPFTNYYMSWIRQAPGKGLEWISYITSRGDTAYYADSVKGRFTVARDNSKNSLYLQMNSLRAEDTAMYFCARGGDDYADSWGQGILVTVSS
VL: EIVLTQSPATLPLSPGERATLSCRASQSINTNLAWYQQKPGQAPRLLIYETSHRASAIPARFSGSGSGTDFTLKISSLEPEDLAIYYCQQYRNWPQTFGQGTRLEIK
Turning to B10, the binding result in assay [1] and in assay [2] was “binds” each time.

B11: WNV-99 (antibody, V domains shown)
VH: QVRLVESGGGVVQPGRSLRLSCAASGFTLSSYGMHWVRQAPGKGLEWVAIISYDGSDKYYADSVKGRFTISRDNSKNTLYLQMNSLRPEDTAMYYCAKPDRSSSPFAHWGQGTLVTVSS
VL: SYELTQPPSVSVSPGQTARITCSGDALPKQYAFWYQQKPGQTPVVVISKDSERPSGIPERFSGSSSGTTVTLTISGVQAEDEADYYCQSADSSGIWVFGGGTKLTVL
With B11, the binding result in assay [1], in assay [3], in assay [5] and in assay [2] was “binds” in each case.

B12: WNV-113 (antibody, V domains shown)
VH: QITLKESGPTLVKPTQTLTVTCTFSGFSLNTNGVGVGWIRQPPGKALEWLALIYWDDVKRYRPSLESRLTITKDTSKNQVVLTMTDMDPVDTGTYYCAHRFHSRGWYTFDYWGQGTRVTVSS
VL: SYVLTQPPSVSVAPGQTARITCGGNNIGGKNVHWYQQKPGQAPVLVVYDDNDRPSGIPERFSGSNSGNTATLTISRVEAGDEADFYCQVWDSNSEHVVFGGGTKLTVL
With B12, the binding result in assay [1] and in assay [2] was “binds” in each case.
